From patent publication US20140341881A1 (DERMADIS, published 2014) come the findings set out here.

Sequences and labels used below:
B1: human kallikrein 14 (hK14) (enzyme, UniProt Q9P0G3 25-251, looked up)
chain: IIGGHTCTRSSQPWQAALLAGPRRRFLCGGALLSGQWVITAAHCGRPILQVALGKHNLRRWEATQQVLRVVRQVTHPNYNSRTHDNDLMLLQLQQPARIGRAVRPIEVTQACASPGTSCRVSGWGTISSPIARYPASLQCVNINISPDEVCQKAYPRTITPGMVCAGVPQGGKDSCQGDSGGPLVCRGQLQGLVSWGMERCALPGYPGVYTNLCKYRSWIEETMRDK
notes: range counted on GenBank AAK48524 (printed), which may differ from the UniProt numbering; also called recombinant hK14

The target of test [1] is T1, AATG9 (human, UniProt P01009 25-418).
T1 construct: mature; also called rAATG9
The experiment in a line: progress curve, pseudo-first order, 37 C. As to the method:
(§1) The association rate constants for interactions of hK14, with different inhibitors were determined under pseudo-first order conditions using the progress curve method (Morrison and Walsh, 1988). Under these conditions, a fixed amount of enzyme (2 nM) was mixed with different concentrations of inhibitor (0-80 nM) and an excess of substrate (20 μM). Reactions were performed in reaction buffer (50 mM Tris pH 7.5, 150 mM NaCl, 0.05% Triton X-100, 0.01% BSA) at 37° C. for 45 min and the rate of product formation was measured using a FLₓ800 fluorescence 96-well microplate reader (Biotek, USA) Inhibition is considered to be irreversible over the course of reaction and the progression of enzyme activity is expressed as product formation (P), beginning at a rate (vz) and is inhibited over time (t) at a first-order rate (kobs), where the rate constant is only dependent on the inhibitor concentration.
(§2) Kinetic analysis of the inhibition of human hK14 by recombinant serpins were performed under pseudo-first-order conditions using an excess of inhibitor at various molar ratios of hK14. The time-dependent inactivation of the enzyme through reaction with serpin was monitored continuously, following the decrease in the rate of substrate turnover. Progress curves for reactions with different serpin concentrations were fitted to equation 1 to calculate values describing the rate constant (kobs). The association rate constants (kₐ) were determined from the slope of kobs values versus the concentration of the hK14 inhibitors.

The target in test [2] is T2, AATWT (recombinant wild type alpha-1-antitrypsin) (human, UniProt P01009 25-418).
T2 construct: mature; also called rAATwt; rAAT
The experiment in a line: progress curve, pseudo-first order, 37 C. As to the method:
as §1, §2

Test [3] addresses T1, AATG9. Nature of the test: progress curve. As to the method:
as §1

The target in test [4] is T2, AATWT (recombinant wild type …). The experiment in a line: progress curve. The method, then: as §1
A further test addresses T3, AATG1 (human, UniProt P01009 25-418).
T3 construct: mature
Nature of the test: progress curve; * [I0]/[E0] < 5 * SI. As to the method:
as §1

The next test addresses T4, AATE8 (human, UniProt P01009 25-418).
T4 construct: mature; also called rAATE8
The experiment in a line: progress curve; * [I0]/[E0] < 5 * SI. The method, then:
as §1

In the next test the target is T5, AATG1g (human, UniProt P01009 25-418).
T5 construct: mature
The experiment in a line: progress curve; * [I0]/[E0] < 5 * SI. The method, then:
as §1

A further test deals with T6, AATF3 (human, UniProt P01009 25-418).
T6 construct: mature
The experiment in a line: progress curve; * [I0]/[E0] < 5 * SI. As to the method: as §1

In the next test the target is T7, AATC11 (human, UniProt P01009 25-418).
T7 construct: mature
Nature of the test: progress curve; * [I0]/[E0] < 5 * SI. As to the method: as §1

In another test the target is T8, AATE5 (human, UniProt P01009 25-418).
T8 construct: mature
Nature of the test: progress curve; * [I0]/[E0] < 5 * SI. The method, then:
as §1

In test [5] the target is B1. The experiment in a line: progress curve.
In test [6] the target is B1. Nature of the test: progress curve, pseudo-first order, 37 C. The method, then: as §1, §2
The target in test [7] is B1. The experiment in a line: residual hK14 activity against [I0]/[E0]. The essentials: (§3)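 hK14 preincubated 4 hours at 37° C with varying inhibitor concentrations in 50 mM Tris pH 7.5, 150 mM NaCl, 0.05% Triton X-100, 0.01% BSA; residual activity read with Boc-Val-Pro-Arg-AMC (ex 340/em 485 nm). SI taken as abscissa intercept of vi/v₀ versus [I₀]/[E₀] linear regression.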

For another test, the target named is human kallikrein 4 (hK4) (human, UniProt Q9Y5K2 31-254, limits assumed). Nature of the test: cell-based or functional assay.
Test [8] addresses T9, human neutrophil elastase (HNE) (human, UniProt P08246 30-247, limits assumed).
T9 sequence (looked up): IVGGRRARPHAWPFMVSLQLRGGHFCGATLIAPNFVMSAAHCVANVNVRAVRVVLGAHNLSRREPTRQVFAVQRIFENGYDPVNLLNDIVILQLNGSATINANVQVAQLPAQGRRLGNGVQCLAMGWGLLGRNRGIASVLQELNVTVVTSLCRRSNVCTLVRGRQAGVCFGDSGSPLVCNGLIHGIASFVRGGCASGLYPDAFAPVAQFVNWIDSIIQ
The experiment in a line: cell-based or functional assay.

In test [9] the target is T10, human kallikrein 13 (hK13) (human, UniProt Q9UKR3 26-277, limits assumed).
T10 sequence (looked up): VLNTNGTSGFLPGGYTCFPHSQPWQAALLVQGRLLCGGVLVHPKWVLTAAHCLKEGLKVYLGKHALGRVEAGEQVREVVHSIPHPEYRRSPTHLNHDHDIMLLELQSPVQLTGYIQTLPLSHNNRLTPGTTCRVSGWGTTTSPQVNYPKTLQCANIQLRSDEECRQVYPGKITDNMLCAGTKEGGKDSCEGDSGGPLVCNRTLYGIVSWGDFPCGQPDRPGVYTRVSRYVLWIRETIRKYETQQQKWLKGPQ
Nature of the test: cell-based or functional assay.

Another test concerns the target T11, human kallikrein 8 (hK8) (human, UniProt O60259 33-260).
T11 sequence (looked up): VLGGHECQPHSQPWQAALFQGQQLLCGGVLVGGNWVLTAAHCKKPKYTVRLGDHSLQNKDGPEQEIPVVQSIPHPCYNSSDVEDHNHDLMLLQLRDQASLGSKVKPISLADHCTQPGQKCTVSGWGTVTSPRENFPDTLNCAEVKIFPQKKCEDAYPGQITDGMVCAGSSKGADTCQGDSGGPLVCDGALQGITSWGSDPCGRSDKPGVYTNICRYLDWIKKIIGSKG
Nature of the test: cell-based or functional assay.

Another test deals with human kallikrein 6 (hK6) (human, UniProt Q92876 22-244). Nature of the test: cell-based or functional assay.
Another test concerns the target T12, human kallikrein 5 (hK5) (human, UniProt Q9Y337 67-293, limits assumed).
T12 sequence (looked up): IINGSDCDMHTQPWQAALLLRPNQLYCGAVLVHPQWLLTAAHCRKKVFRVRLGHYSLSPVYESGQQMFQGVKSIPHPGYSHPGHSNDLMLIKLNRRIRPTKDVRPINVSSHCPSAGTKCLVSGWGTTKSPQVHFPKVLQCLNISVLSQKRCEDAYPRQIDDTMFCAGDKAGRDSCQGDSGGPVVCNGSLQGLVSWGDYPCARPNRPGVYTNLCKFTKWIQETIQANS
The experiment in a line: cell-based or functional assay.

For test [10], the target named is B1. The experiment in a line: cell-based or functional assay.
In the next test the target is human kallikrein 2 (hK2) (human, UniProt P20151 25-261). The experiment in a line: cell-based or functional assay.
A further test has as its target thrombin. Nature of the test: cell-based or functional assay.
The target of test [11] is human plasma kallikrein (PK) (human, UniProt P03952 20-638). Nature of the test: cell-based or functional assay.
In test [12] the target is human chymotrypsin (Chtr) (human, UniProt P17538 19-263). The experiment in a line: cell-based or functional assay.
Test [13] concerns the target prostate specific antigen (PSA, hK3) (human, UniProt P07288 25-261). Nature of the test: cell-based or functional assay.
In test [14] the target is B1. Nature of the test: residual hK14 activity after 4 h at 37 C against [I0]/[E0]. The essentials:
as §3

The target in test [15] is B1. The experiment in a line: progress curve. This is another data set of the same source.

T1 sequence (P01009 other isoform, or with tags, fused parts or gaps): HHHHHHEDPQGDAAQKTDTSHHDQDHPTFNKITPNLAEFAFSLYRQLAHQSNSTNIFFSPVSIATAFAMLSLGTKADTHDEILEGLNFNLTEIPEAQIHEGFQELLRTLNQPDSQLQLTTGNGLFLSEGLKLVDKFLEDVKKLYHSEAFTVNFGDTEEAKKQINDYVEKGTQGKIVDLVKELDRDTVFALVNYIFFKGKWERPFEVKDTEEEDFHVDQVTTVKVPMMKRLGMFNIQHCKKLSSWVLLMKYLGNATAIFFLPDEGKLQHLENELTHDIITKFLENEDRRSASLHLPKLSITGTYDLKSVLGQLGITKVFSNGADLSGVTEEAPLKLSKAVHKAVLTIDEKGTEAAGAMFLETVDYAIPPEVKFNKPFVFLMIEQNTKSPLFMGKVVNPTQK
T2 sequence (P01009 other isoform, or with tags, fused parts or gaps): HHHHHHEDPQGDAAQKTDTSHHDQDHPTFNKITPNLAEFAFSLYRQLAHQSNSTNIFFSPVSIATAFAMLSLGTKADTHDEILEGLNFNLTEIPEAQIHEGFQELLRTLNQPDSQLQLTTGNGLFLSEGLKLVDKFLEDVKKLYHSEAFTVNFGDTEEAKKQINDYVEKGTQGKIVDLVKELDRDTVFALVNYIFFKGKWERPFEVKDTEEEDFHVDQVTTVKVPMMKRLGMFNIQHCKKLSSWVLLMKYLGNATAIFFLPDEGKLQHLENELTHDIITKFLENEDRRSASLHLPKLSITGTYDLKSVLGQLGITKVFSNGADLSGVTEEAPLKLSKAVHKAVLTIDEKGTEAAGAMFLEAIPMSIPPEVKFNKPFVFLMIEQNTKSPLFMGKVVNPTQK
Chain of human chymotrypsin (Chtr) (P17538 19-263): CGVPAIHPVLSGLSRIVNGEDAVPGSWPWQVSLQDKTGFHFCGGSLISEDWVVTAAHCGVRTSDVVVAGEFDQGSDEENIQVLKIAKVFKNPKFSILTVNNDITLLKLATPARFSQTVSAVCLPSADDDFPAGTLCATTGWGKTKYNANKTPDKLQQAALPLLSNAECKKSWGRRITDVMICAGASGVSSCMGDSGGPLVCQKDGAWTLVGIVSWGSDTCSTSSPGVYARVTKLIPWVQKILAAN
T3 sequence (P01009 other isoform, or with tags, fused parts or gaps): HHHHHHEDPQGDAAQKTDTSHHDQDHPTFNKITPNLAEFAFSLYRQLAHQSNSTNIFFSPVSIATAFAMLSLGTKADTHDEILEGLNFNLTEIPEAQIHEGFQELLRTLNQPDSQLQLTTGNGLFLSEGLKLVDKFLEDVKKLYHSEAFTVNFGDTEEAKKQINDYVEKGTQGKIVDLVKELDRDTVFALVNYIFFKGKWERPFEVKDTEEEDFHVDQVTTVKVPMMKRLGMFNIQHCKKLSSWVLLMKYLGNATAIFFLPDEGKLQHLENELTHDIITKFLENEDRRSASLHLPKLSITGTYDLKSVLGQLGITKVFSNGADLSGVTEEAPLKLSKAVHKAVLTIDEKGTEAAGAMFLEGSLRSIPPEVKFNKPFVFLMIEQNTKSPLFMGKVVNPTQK
T8 sequence (P01009 other isoform, or with tags, fused parts or gaps): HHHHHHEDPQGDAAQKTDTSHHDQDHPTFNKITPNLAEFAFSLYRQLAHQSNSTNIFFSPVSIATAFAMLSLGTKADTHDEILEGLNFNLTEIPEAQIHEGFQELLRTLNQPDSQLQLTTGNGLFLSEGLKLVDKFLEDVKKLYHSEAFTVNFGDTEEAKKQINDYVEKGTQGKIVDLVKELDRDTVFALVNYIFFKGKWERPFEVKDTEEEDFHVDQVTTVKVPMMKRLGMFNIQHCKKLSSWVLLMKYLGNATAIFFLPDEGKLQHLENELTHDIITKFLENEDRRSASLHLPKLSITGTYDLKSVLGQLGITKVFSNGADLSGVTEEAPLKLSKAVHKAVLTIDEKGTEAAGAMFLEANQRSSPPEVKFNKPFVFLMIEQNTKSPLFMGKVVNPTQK
Chain of human kallikrein 4 (hK4) (Q9Y5K2 31-254 limits assumed): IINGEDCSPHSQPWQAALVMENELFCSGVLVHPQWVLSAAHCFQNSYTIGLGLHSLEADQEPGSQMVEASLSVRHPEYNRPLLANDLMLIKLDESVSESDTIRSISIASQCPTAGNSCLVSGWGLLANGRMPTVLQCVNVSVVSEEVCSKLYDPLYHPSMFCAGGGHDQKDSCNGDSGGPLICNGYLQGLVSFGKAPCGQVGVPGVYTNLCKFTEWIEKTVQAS
T7 sequence (P01009 other isoform, or with tags, fused parts or gaps): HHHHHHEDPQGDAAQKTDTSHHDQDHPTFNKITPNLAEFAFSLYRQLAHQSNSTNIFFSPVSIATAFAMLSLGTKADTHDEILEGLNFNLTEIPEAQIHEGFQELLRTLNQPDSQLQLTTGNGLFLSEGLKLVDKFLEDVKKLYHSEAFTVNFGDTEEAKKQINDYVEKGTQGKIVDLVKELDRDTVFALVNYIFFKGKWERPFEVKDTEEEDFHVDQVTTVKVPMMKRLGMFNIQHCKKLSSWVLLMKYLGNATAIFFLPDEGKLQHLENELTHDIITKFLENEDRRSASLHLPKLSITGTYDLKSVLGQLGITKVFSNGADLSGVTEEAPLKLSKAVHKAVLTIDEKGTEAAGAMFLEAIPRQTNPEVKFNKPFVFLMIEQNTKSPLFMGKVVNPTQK
T5 sequence (P01009 other isoform, or with tags, fused parts or gaps): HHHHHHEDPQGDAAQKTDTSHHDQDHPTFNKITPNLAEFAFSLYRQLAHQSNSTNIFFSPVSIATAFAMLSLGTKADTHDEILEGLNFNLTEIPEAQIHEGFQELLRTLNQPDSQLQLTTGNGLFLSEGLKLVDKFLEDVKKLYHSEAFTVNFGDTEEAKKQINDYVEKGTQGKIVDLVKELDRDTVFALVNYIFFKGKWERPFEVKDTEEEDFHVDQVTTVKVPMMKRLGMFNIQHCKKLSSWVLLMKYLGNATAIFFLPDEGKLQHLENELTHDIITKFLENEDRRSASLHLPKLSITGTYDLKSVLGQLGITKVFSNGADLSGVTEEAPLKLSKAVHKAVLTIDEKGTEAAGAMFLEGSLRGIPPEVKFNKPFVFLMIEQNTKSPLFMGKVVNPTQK
Chain of human plasma kallikrein (PK) (P03952 20-638 limits assumed): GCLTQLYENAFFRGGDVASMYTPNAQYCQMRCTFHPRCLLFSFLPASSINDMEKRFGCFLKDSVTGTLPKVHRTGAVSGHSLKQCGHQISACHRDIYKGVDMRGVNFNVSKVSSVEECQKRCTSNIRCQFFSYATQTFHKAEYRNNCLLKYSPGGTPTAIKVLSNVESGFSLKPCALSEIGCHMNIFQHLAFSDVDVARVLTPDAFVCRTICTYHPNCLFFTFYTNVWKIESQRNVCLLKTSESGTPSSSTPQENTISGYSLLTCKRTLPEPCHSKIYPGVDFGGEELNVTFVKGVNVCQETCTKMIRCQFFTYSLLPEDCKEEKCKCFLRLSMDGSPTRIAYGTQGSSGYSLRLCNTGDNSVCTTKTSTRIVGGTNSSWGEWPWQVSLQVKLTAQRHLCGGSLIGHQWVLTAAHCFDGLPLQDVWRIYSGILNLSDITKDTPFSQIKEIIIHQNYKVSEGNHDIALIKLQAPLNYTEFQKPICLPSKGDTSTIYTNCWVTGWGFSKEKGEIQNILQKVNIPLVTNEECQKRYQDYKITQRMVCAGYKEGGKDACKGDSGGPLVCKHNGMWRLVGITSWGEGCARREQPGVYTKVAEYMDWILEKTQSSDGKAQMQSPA
T6 sequence (P01009 other isoform, or with tags, fused parts or gaps): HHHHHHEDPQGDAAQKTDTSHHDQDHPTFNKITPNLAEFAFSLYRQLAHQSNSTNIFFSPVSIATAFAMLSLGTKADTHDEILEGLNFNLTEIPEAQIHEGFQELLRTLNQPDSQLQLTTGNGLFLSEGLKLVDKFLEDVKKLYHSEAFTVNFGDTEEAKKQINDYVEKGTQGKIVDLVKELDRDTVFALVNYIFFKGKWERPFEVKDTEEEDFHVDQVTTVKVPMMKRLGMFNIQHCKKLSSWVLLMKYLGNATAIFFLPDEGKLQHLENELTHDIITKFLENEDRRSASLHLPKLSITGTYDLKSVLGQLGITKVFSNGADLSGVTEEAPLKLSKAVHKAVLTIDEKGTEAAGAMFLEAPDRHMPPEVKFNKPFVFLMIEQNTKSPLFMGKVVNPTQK
T4 sequence (P01009 other isoform, or with tags, fused parts or gaps): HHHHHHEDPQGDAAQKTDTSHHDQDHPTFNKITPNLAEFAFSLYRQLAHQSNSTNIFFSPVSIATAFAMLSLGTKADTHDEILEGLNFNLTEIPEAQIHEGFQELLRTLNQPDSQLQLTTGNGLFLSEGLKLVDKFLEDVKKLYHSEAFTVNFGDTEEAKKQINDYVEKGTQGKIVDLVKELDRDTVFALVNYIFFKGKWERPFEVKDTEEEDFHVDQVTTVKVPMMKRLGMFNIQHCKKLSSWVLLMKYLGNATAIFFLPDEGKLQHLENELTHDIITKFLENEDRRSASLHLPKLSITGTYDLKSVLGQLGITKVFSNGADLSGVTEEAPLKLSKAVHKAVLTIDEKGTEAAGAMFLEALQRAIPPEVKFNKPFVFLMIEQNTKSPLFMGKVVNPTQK

With B1, the kon with AATG9 [1] worked out at 217000 M⁻¹ s⁻¹; in [2], 263000 M⁻¹ s⁻¹; with AATG9 [3], 217000 M⁻¹ s⁻¹; in [4] it was 263000 M⁻¹ s⁻¹; with AATG1 it was 168000 M⁻¹ s⁻¹; with AATE8 it was 242000 M⁻¹ s⁻¹. For the same molecule, the kon in the test with AATG1g amounted to 257000 M⁻¹ s⁻¹; with AATF3 it was 13000 M⁻¹ s⁻¹; in the test with AATC11 it was 63000 M⁻¹ s⁻¹; with AATE5, 28000 M⁻¹ s⁻¹.

B2: ACTG9 (other)
chain: MRGSHHHHHHSRHPNSPLDEENLTQENQDRGTHVDLGLASANVDFAFSLYKQLVLKAPDKNVIFSPLSISTALAFLSLGAHNTTLTEILKGLKFNLTETSEAEIHQSFQHLLRTLNQSSDELQLSMGNAMFVKEQLSLLDRFTEDAKRLYGSEAFATDFQDSAAAKKLINDYVKNGTRGKITDLIKDLDSQTMMVLVNYIFFKAKWEMPFDPQDTHQSRFYLSKKKWVMVPMMSLHHLTIPYFRDEELSCTVVELKYTGNASALFILPDQDKMEEVEAMLLPETLKRWRDSLEFREIGELYLPKFSISRDYNLNDILLQLGIEEAFTSKADLSGITGARNLAVSQVVHKAVLDVFEEGTEASAATAVKTVDYAALVETRTIVRFNRPFLMIIVPTDTQNIFFMSKVTNPKQA
notes: also called rACTG9
B2: the kon worked out at 75000 M⁻¹ s⁻¹ in [5], 74000 M⁻¹ s⁻¹ in [6] and 74000 M⁻¹ s⁻¹ in test [15]. Further, the “SI (stoichiometry of inhibition)” value in test [7] and in test [14] was 1.5 in each case. Besides, the Percentage inhibition (with human kallikrein 4 (hK4); in test [8]; in test [9]; with human kallikrein 8 (hK8); with human kallikrein 6 (hK6); with human kallikrein 5 (hK5)) was 0% throughout. For the same molecule, the Percentage inhibition in test [10] amounted to 100%; with human kallikrein 2 (hK2), 0%; in the test with thrombin, 0%; in test [11], 0%; in [12], 100%; in [13], 0%.
